Values of other authors as cited in patent publication US20190298804A1, “ACTIVATION OF THE ENDOGENOUS ILEAL BRAKE HORMONE PATHWAY FOR ORGAN REGENERATION AND RELATED COMPOSITIONS, METHODS OF TREATMENT, DIAGNOSTICS, AND REGULATORY SYSTEMS” (VOLANT HOLDINGS GMBH, priority 2013, published 2019).

Tested on: MIN-6 cells
Conditions: immunoprecipitation and western blotting

B1: BTC: member of the epidermal growth factor family (protein, UniProt P35070 32-111, looked up)
Betacellulin: DGNSTRSPETNGLLCGDPEENCAATTTQSKRKGHFSRCPKQYKHYCIKGRCRFVVAEQTPSCVCDEGYIGARCERVDLFY
modifications: Betacellulin
notes: member of the epidermal growth factor family
  phosphorylation of EGF receptors: induced phosphorylation of only ErbB-1 and ErbB-2
